Values quoted from earlier work in PMC4518449 (Journal of chromatography. B, Analytical technologies in …, 2013).

Settings: rapidly cleared by DPP-4

Substance: GLP-1
- half-life in plasma: less than 2 min
